Reference: PMC11189300, “Structure of the human KMN complex and implications for regulation of its assembly” (Nature Structural & Molecular Biology, 2024)

B3: NSL1 (subunit of Mis12C in the KMN structure) (natural protein, human, UniProt Q96IY1 1-281, looked up)
chain: MAGSPELVVLDPPWDKELAAGTESQALVSATPREDFRVRCTSKRAVTEMLQLCGRFVQKLGDALPEEIREPALRDAQWTFESAVQENISINGQAWQEASDNCFMDSDIKVLEDQFDEIIVDIATKRKQYPRKILECVIKTIKAKQEILKQYHPVVHPLDLKYDPDPAPHMENLKCRGETVAKEISEAMKSLPALIEQGEGFSQVLRMQPVIHLQRIHQEVFSSCHRKPDAKPENFITQIETTPTETASRKTSDMVLKRKQTKDCPQRKWYPLRPKKINLDT
notes: NSL1, human; source: Tnao38 insect cells (baculovirus), co-expressed in Mis12C, purified (Talon, SEC)

Tests used:
Conditions in all cases: both partners purified
[1] = molecular target: T1, KNL1 residues 2,021–2,342 (human, UniProt Q8NG31 2021-2342); assay: cryo-EM structure; eight-subunit KMN (full-length Mis12C, SPC24 109–197/SPC25 92–224, ZWINT, KNL1 2,021–2,342), 0.3 mg/ml with 0.003% Triton; reconstruction at 4.5 Å; model fitted from known structures and AF2 predictions and refined against the map
T1 construct: KNL1 (CASC5), human, C-terminal region, residues 2,021–2,342; numbering of isoform 1 of the CASC5 gene; also called KNL1_(2,021–2,342); Knl1_(2,021–2,342); source: E. coli BL21(DE3)-Codon-plus-RIPL, purified (glutathione-agarose, TEV cleavage, SEC)
T1 sequence (looked up): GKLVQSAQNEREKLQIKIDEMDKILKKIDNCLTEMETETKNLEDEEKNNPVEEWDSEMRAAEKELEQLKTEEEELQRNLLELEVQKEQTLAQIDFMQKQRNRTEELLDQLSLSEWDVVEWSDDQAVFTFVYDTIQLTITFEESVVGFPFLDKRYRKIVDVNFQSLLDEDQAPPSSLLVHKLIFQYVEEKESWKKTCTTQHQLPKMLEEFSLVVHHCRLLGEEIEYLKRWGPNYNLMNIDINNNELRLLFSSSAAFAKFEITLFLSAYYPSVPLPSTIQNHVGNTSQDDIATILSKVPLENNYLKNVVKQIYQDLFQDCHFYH

[2] = molecular target: T2, Mis12 complex (Mis12C), full length: MIS12, PMF1, NSL1, DSN1 (human, UniProt Q9H081 1-205; Q6P1K2 1-205; Q96IY1 1-281; Q9H410 1-356); assay: as above
T2 construct: MIS12, human, subunit of the Mis12 complex; PMF1, human, subunit of the Mis12 complex; NSL1, human, subunit of the Mis12 complex; DSN1, human, subunit of the Mis12 complex (DSN1^SORT-HIS); In BLI one partner was biotinylated by sortase (GGGG-biotin peptide); also called Mis12C^WT; wild-type Mis12C; source: Tnao38 insect cells (baculovirus from pBIG1A), purified (Talon, SEC); copies: + + +
T2 sequence (looked up) 1: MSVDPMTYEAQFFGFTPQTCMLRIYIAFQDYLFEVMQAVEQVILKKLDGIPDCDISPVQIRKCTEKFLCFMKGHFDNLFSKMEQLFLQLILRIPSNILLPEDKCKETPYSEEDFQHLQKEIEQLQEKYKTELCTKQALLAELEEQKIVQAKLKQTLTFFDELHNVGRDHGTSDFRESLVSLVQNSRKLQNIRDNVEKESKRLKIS
T2 sequence (looked up) 2: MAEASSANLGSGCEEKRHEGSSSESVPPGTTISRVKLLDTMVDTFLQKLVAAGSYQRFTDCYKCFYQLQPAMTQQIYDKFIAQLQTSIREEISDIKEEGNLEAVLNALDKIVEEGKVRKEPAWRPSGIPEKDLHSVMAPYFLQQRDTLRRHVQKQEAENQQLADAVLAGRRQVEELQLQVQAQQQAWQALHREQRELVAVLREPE
T2 sequence (looked up) 3: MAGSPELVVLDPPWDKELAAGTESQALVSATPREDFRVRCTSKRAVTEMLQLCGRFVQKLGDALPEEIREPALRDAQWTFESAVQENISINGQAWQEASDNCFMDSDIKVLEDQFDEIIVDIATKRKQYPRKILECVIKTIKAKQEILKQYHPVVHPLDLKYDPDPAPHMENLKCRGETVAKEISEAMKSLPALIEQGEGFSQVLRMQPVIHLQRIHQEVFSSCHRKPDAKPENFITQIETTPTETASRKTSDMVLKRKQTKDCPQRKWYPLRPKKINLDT
T2 sequence (looked up) 4: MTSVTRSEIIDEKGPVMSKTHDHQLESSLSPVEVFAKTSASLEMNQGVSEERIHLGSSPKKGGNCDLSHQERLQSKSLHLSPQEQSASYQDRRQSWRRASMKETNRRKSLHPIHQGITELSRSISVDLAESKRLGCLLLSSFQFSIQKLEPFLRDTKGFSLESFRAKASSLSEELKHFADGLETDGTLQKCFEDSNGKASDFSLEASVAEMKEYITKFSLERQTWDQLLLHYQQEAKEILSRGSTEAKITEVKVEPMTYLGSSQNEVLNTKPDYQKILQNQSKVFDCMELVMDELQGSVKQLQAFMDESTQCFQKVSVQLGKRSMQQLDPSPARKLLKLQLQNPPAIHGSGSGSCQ

[3] = molecular target: B3; assay: as above
[4] = molecular target: T3, DSN1 (subunit of Mis12C in the KMN structure) (human, UniProt Q9H410 1-356); assay: as above
T3 construct: DSN1, human; also called DSN1^SORT-HIS; source: Tnao38 insect cells (baculovirus), co-expressed in Mis12C, purified (Talon, SEC)
T3 sequence (looked up): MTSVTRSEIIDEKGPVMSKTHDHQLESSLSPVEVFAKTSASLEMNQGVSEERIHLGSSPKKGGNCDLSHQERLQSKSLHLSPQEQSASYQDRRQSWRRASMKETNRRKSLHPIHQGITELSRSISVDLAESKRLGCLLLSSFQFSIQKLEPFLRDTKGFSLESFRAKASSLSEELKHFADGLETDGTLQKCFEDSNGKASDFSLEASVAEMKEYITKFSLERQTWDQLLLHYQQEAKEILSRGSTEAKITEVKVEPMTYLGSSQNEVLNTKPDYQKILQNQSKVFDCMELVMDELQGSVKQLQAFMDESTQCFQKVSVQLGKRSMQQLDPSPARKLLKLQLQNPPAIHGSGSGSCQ

[5] = molecular target: T1, KNL1 residues 2,021–2,342; assay: SEC; KNL1 2,021–2,342, ZWINT, Mis12C and SPC24 109–197/SPC25 92–224 mixed equimolar on ice for at least 1 h; 50 mM HEPES pH 8.0, 150 mM NaCl, 2 mM TCEP; S200 5/150 column
[6] = molecular target: T2, Mis12 complex (Mis12C), full length: …; assay: ITC; PEAQ-ITC; 50 mM HEPES pH 8.0, 150 mM NaCl, 1 mM TCEP; 19 injections; one-site binding fit
[7] = molecular target: T2, Mis12 complex (Mis12C), full length: …; assay: BLI; Octet SA biosensors loaded with the biotinylated ligand, analyte at different concentrations; 25 °C; 50 mM HEPES pH 8.0, 150 mM NaCl, 2 mM TCEP, 0.05% Tween-20; which partner was loaded is not given
Mis12C^M5 (NSL1 I216A) = molecular target: T4, Mis12C^M5 (NSL1 I216A) (human, UniProt Q9H081 1-205; Q6P1K2 1-205; Q96IY1 1-281; Q9H410 1-356, I216A); assay: ITC; PEAQ-ITC; 50 mM HEPES pH 8.0, 150 mM NaCl, 1 mM TCEP; 19 injections; one-site binding fit
T4 construct: MIS12, human; PMF1, human; NSL1, human, with I216A on the α5 helix; DSN1, human; source: Tnao38 insect cells (baculovirus), purified (Talon, SEC); copies: + + +
T4 sequence (looked up) 1: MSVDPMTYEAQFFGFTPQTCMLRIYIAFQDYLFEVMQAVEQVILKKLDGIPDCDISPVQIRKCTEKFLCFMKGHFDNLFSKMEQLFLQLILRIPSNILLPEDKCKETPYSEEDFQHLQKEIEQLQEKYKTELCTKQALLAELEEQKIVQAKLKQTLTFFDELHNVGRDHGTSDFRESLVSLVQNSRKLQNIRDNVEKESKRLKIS
T4 sequence (looked up) 2: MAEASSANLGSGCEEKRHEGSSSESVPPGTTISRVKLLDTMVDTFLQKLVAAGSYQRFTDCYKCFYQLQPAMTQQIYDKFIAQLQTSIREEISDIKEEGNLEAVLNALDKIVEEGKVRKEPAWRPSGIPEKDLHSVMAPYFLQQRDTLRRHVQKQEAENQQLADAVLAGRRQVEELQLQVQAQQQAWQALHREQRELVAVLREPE
T4 sequence (looked up) 3: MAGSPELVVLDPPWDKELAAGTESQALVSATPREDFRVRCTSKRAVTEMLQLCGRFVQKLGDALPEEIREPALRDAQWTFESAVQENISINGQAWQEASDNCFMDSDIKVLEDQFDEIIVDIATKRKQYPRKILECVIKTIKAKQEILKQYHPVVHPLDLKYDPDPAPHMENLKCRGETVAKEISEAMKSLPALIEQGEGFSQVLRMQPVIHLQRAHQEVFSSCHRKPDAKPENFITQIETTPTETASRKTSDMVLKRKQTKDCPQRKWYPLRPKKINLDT
T4 sequence (looked up) 4: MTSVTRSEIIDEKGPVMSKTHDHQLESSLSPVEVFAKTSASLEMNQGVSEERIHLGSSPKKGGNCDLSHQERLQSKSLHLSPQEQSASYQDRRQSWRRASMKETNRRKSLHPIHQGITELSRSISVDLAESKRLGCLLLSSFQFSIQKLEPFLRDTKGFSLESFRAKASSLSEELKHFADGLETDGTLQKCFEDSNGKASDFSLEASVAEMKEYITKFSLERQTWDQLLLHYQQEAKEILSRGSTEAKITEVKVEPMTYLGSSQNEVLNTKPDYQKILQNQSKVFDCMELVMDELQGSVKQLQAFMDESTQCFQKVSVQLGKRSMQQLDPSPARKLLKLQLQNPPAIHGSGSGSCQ

B1: PMF1 (subunit of Mis12C in the KMN structure) (natural protein, human, UniProt Q6P1K2 1-205, looked up)
chain: MAEASSANLGSGCEEKRHEGSSSESVPPGTTISRVKLLDTMVDTFLQKLVAAGSYQRFTDCYKCFYQLQPAMTQQIYDKFIAQLQTSIREEISDIKEEGNLEAVLNALDKIVEEGKVRKEPAWRPSGIPEKDLHSVMAPYFLQQRDTLRRHVQKQEAENQQLADAVLAGRRQVEELQLQVQAQQQAWQALHREQRELVAVLREPE
notes: PMF1, human; source: Tnao38 insect cells (baculovirus), co-expressed in Mis12C, purified (Talon, SEC)
binding result [1]: binds

B2: SPC24_(109–197)/SPC25_(92–224) dimer (complex, human)
chain 1: EELKEIEADLERQEKEVDEDTTVTIPSAVYVAQLYHQVSKIEWDYECEPGMVKGIHHGPSVAQPIHLDSTQLSRKFISDYLWSLVDTEW
chain 2: KKQELEVLTANIQDLKEEYSRKKETISTANKANAERLKRLQKSADLYKDRLGLEIRKIYGEKLQFIFTNIDPKNPESPFMFSLHLNEARDYEVSDSAPHLEGLAEFQENVRKTNNFSAFLANVRKAFTATVYN
notes: SPC25, human, residues 92–224 (RWD domain); GST was cleaved off with 3C protease; also called SPC24/SPC25 dimer; source: E. coli BL21(DE3)-codon-plus-RIPL, purified (glutathione-agarose, 3C protease, SEC)
binding result [2]: binds
binding result [3]: binds
binding result [4]: binds

B3
binding result [1]: binds

B4: ZWINT (natural protein, human, UniProt O95229 1-277, looked up)
chain: MEAAETEAEAAALEVLAEVAGILEPVGLQEEAELPAKILVEFVVDSQKKDKLLCSQLQVADFLQNILAQEDTAKGLDPLASEDTSRQKAIAAKEQWKELKATYREHVEAIKIGLTKALTQMEEAQRKRTQLREAFEQLQAKKQMAMEKRRAVQNQWQLQQEKHLQHLAEVSAEVRERKTGTQQELDRVFQKLGNLKQQAEQERDKLQRYQTFLQLLYTLQGKLLFPEAEAEAENLPDDKPQQPTRPQEQSTGDTMGRDPGVSFKAVGLQPAGDVNLP
notes: ZWINT, human; Probably made like the mutants (GST fusion, 3C cleaved); ZWINT was in the cryo-EM sample but is not visible in the map; also called ZWINT^WT
binding result [5]: binds

B5: KNL1 residues 2,026–2,342 (domain or fragment, human, UniProt Q8NG31 2026-2342, looked up)
chain: SAQNEREKLQIKIDEMDKILKKIDNCLTEMETETKNLEDEEKNNPVEEWDSEMRAAEKELEQLKTEEEELQRNLLELEVQKEQTLAQIDFMQKQRNRTEELLDQLSLSEWDVVEWSDDQAVFTFVYDTIQLTITFEESVVGFPFLDKRYRKIVDVNFQSLLDEDQAPPSSLLVHKLIFQYVEEKESWKKTCTTQHQLPKMLEEFSLVVHHCRLLGEEIEYLKRWGPNYNLMNIDINNNELRLLFSSSAAFAKFEITLFLSAYYPSVPLPSTIQNHVGNTSQDDIATILSKVPLENNYLKNVVKQIYQDLFQDCHFYH
notes: numbering of isoform 1 of the CASC5 gene; also called KNL1^WT; source: E. coli BL21(DE3)-Codon-plus-RIPL, purified (glutathione-agarose, TEV cleavage, SEC)
Kd [6]: ~1.6 nM
Kd [7]: ~2 nM

B6: full-length SPC24/SPC25 (complex, human)
chain 1: MAAFRDIEEVSQGLLSLLGANRAEAQQRRLLGRHEQVVERLLETQDGAEKQLREILTMEKEVAQSLLNAKEQVHQGGVELQQLEAGLQEAGEEDTRLKASLLQLTRELEELKEIEADLERQEKEVDEDTTVTIPSAVYVAQLYHQVSKIEWDYECEPGMVKGIHHGPSVAQPIHLDSTQLSRKFISDYLWSLVDTEW
chain 2: MVEDELALFDKSINEFWNKFKSTDTSCQMAGLRDTYKDSIKAFAEKLSVKLKEEERMVEMFLEYQNQISRQNKLIQEKKDNLLKLIAEVKGKKQELEVLTANIQDLKEEYSRKKETISTANKANAERLKRLQKSADLYKDRLGLEIRKIYGEKLQFIFTNIDPKNPESPFMFSLHLNEARDYEVSDSAPHLEGLAEFQENVRKTNNFSAFLANVRKAFTATVYN
notes: SPC24, human; SPC25, human; GST was cleaved off with 3C protease; also called SPC24/SPC25 heterodimer; SPC24/SPC25 pair; source: E. coli BL21(DE3)-codon-plus-RIPL, purified (glutathione-agarose, 3C protease, SEC)
Kd [6]: ~46 nM
fold reduction of binding affinity against the wild-type pair (Mis12C^M5 (NSL1 I216A)): ~15 fold
